Results from patent US20120276098A1 (GlaxoSmithKline, published 2012).

B1: DAT 0120: GLP-1 (7-37) A8G, helical linker, DOM7h-14 fusion (other)
chain: HGEGTFTSDVSSYLEGQAAKEFIAWLVKGRGKEAAAKEAAAKEAAAKELAAKEAAAKEAAAKEAAAKELAADIQMTQSPSSLSASVGDRVTITCRASQWIGSQLSWYQQKPGKAPKLLIMWRSSLQSGVPSRFSGSGSGTDFTLTISSLQPEDFATYYCAQGAALPRTFGQGTKVEIKR
notes: also called DAT 0120: GLP-1 A8G, helical linker, DOM7h-14 fusion
B2: Rat serum albumin (other, UniProt P02770 25-608, looked up)
chain: EAHKSEIAHRFKDLGEQHFKGLVLIAFSQYLQKCPYEEHIKLVQEVTDFAKTCVADENAENCDKSIHTLFGDKLCAIPKLRDNYGELADCCAKQEPERNECFLQHKDDNPNLPPFQRPEAEAMCTSFQENPTSFLGHYLHEVARRHPYFYAPELLYYAEKYNEVLTQCCTESDKAACLTPKLDAVKEKALVAAVRQRMKCSSMQRFGERAFKAWAVARMSQRFPNAEFAEITKLATDVTKINKECCHGDLLECADDRAELAKYMCENQATISSKLQACCDKPVLQKSQCLAEIEHDNIPADLPSIAADFVEDKEVCKNYAEAKDVFLGTFLYEYSRRHPDYSVSLLLRLAKKYEATLEKCCAEGDPPACYGTVLAEFQPLVEEPKNLVKTNCELYEKLGEYGFQNAVLVRYTQKAPQVSTPTLVEAARNLGRVGTKCCTLPEAQRLPCVEDYLSAILNRLCVLHEKTPVSEKVTKCCSGSLVERRPCFSALTVDETYVPKEFKAETFTFHSDICTLPDKEKQIKKQTALAELVKHKPKATEDQLKTVMGDFAQFVDKCCKAADKDNCFATEGPNLVARSKEALA
notes: also called RSA

How the values were obtained:
Assay in all cases: SPR (Biacore), serum albumin immobilised on CM5 chip, fusion flowed at 16 nM to 2 uM
[1] = molecular target: T1, Human serum albumin (human, UniProt P02768 25-609)
T1 construct: also called HSA
Method: (§1) The analysis was performed using a CM5 Biacore chip (carboxymethylated dextran matrix) that was coated with serum albumin.
(§2) Affinity (KD) was calculated from the BIACORE traces by fitting on-rate and off-rate curves to traces generated by concentrations of dAb in the region of the KD.

[2] = molecular target: B2
Method: as §1, §2

[3] = molecular target: T2, Mouse serum albumin (mouse, UniProt P07724 25-608)
T2 construct: also called MSA
T2 sequence (P07724 25-608 limits assumed): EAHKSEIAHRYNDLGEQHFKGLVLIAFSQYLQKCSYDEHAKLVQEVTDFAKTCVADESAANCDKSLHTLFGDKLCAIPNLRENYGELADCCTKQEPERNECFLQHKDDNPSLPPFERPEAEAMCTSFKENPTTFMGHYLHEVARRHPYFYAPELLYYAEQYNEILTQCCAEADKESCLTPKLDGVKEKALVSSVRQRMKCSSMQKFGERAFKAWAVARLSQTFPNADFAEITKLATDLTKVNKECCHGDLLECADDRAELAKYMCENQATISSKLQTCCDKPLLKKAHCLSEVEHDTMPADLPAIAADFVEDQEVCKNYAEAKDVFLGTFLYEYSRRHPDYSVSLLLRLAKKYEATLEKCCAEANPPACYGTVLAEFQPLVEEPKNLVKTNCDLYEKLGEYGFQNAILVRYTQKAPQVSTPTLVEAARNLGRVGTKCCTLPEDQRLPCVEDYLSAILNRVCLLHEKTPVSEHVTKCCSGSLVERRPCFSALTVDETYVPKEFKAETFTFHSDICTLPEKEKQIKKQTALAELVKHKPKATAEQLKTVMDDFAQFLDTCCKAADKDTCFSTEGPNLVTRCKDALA
Method: as §1, §2

[4] = molecular target: DAT 0117: Exendin 4, helical linker, DOM7h-14 fusion
Method: as §1, §2

Q: Which Kd [1] does the source give for B1 here?
A: 110 nM

Q: And the Kd [2]?
A: 800 nM

Q: What about the Kd [3] of the same binder?
A: 110 nM

Q: How did the Kd [4] turn out when B2 was run?
A: 700 nM
